Results published in patent publication EP1817050B1.

Columns and labels:
[1] = target: IGF-II receptor (human, in membrane extracts of postmortem frontal lobe tissue) (human) (UniProt P11717); assay: saturation binding of [125I]-IGF-II to pooled human frontal lobe extracts, Braak 2-3; one-site fit/Scatchard
[2] = target: IGF-II receptor (human, in membrane extracts of postmortem frontal lobe tissue) (human) (UniProt P11717); assay: saturation binding of [125I]-IGF-II to pooled human frontal lobe extracts, Braak 4-5; one-site fit/Scatchard
[3] = target: IGF-II receptor (human, in membrane extracts of postmortem frontal lobe tissue) (human) (UniProt P11717); assay: saturation binding of [125I]-IGF-II to pooled human frontal lobe extracts, Braak 6; one-site fit/Scatchard
[4] = target: IGF-II receptor (human, in membrane extracts of postmortem frontal lobe tissue) (human) (UniProt P11717); assay: saturation binding of [125I]-IGF-II to pooled human frontal lobe extracts, Braak 0-1; one-site fit/Scatchard

Sequence of IGF-II receptor (human, in membrane extracts of postmortem frontal lobe tissue) (human) (P11717 41-2491 limits assumed): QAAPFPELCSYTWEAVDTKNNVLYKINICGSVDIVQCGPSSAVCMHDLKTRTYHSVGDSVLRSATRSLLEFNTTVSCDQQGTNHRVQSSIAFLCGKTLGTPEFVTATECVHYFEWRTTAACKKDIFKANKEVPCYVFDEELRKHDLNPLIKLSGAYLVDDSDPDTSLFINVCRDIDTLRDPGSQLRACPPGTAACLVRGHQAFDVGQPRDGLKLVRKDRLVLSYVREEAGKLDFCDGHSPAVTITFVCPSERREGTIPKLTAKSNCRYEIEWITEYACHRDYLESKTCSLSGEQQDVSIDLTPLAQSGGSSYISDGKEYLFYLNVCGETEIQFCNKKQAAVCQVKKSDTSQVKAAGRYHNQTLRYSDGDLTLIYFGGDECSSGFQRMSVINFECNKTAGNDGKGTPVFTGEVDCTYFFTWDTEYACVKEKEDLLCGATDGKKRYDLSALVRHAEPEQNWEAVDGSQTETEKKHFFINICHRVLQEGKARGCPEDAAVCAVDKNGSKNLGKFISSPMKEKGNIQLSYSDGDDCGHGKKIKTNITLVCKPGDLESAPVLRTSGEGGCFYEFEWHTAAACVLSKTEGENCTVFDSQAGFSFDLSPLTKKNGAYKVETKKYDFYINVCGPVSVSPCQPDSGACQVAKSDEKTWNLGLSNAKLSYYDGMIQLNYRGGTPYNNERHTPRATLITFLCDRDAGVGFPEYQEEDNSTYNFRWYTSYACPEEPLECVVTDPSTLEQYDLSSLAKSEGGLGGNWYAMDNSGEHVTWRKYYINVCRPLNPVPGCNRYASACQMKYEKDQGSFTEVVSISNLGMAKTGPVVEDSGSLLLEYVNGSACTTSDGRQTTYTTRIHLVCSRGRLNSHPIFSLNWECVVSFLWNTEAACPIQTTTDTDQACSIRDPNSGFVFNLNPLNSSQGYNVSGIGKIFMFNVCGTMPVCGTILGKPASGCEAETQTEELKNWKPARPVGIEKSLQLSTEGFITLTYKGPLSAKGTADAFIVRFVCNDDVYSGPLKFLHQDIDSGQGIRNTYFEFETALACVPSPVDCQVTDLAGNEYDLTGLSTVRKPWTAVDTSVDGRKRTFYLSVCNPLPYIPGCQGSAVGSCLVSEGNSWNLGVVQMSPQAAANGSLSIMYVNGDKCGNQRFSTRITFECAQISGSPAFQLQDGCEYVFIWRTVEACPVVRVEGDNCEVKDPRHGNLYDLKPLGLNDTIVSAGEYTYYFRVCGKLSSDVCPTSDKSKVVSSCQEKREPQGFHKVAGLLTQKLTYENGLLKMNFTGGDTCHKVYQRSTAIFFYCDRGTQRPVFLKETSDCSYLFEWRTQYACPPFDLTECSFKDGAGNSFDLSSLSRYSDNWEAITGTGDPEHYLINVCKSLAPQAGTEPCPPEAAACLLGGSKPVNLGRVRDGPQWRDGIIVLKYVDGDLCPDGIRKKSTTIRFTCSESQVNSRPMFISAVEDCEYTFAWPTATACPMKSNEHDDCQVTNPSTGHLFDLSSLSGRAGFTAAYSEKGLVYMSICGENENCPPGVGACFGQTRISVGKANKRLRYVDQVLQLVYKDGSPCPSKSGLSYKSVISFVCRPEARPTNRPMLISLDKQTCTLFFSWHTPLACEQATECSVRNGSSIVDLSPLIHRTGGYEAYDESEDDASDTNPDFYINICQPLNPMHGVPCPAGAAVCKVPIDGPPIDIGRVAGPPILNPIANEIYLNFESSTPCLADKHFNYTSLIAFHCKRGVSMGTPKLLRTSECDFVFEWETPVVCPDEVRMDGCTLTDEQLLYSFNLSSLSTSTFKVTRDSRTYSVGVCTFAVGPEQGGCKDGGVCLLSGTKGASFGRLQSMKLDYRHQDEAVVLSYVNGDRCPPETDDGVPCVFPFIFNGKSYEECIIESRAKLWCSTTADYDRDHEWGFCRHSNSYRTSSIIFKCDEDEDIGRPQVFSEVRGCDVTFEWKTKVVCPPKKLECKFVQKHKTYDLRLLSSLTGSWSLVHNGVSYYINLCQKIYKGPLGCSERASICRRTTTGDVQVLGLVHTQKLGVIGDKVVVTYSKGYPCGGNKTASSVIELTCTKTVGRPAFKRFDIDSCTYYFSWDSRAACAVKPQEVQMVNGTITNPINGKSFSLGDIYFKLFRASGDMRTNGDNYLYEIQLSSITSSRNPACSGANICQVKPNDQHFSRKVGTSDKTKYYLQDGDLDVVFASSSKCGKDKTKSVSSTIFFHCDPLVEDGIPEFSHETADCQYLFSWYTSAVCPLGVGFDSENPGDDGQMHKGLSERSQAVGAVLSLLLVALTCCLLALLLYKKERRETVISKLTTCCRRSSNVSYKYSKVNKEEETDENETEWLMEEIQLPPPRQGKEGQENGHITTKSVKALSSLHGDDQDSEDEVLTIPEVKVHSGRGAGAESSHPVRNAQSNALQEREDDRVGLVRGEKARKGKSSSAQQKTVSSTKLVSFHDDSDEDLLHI

BMAX (fmol/mg protein) [1]: 12.5 | BMAX (fmol/mg protein) [2]: 8.14 | BMAX (fmol/mg protein) [3]: 4.71 | BMAX (fmol/mg protein) [4]: 16.8
Substance: [125I]-labeled IGF-II (ligand)
